# No end group written: not given here.
# Target: T1, biotinylated recombinant human soluble CD4 (rhCD4, Repligen) (human, UniProt P01730 26-396, limits assumed, biotinylated (sites not given))
# T1 construct: Soluble form, bought; biotinylated with a commercial reagent; also called biotinylated-rhCD4
# Test: Spot: cellulose-bound dodecapeptide, 20 nM biotinylated rhCD4
# Procedure: The saturated membrane was incubated with a 20 nM solution of biotinylated-rhCD4 for 2 h at 37° C. Bound biotinylated-rhCD4 was detected by incubating the membrane for 1 h at 37° with a 1:3000 solution of alkaline phosphatase-conjugated streptavidin (Sigma, St. Louis, Mo., USA) and subsequent addition of 5-bromo-4-chloro-3-indolyl phosphate substrate. […] In all cases, the reactivity of the spots was evaluated by scanning the membrane and measuring the intensities of the spots with the NIH image 1.61 software.
# The anti-CD4 immunoreactivity of these peptides was assessed by incubating the membrane with biotinylated-rhCD4.
row,binding result,Binder
1,binds,"LTTFGVHWVRQS (also: bound to cellulose membrane (Spot synthesis), also called VH peptide 29) [cellulose-bound dodecapeptide 29 of the 13B8.2 VH sequence (linear form of CB1)]"
2,binds,"TTFGVHWVRQSP (also: bound to cellulose membrane (Spot synthesis), also called VH peptide 30) [cellulose-bound dodecapeptide 30 of the 13B8.2 VH sequence (linear form of CB2)]"
3,binds,"IYSYLAWYQQKQ (also: bound to cellulose membrane (Spot synthesis), also called VL peptide 29) [cellulose-bound dodecapeptide 29 of the 13B8.2 VL sequence (linear form of CB8)]"
